According to paper PMC4872226, “A rationally engineered yeast pyruvyltransferase Pvg1p introduces sialylation-like properties in neo-human-type complex oligosaccharide” (Scientific Reports, 2016):

Biological target: the molecule itself
Assay: crystal structure; hanging-drop vapor diffusion at 20 °C; 10 mg/mL Pvg1p in 100 mM MOPS-NaOH pH 7.4 with 20 mM PEP and 5 mM pNP-β-Gal; well solution with 10 mM zinc chloride; 2.46 Å; dimer in the asymmetric unit

B1: fission yeast pyruvyltransferase Pvg1p (enzyme, Schizosaccharomyces pombe, UniProt Q9UT27 32-401, looked up)
chain: DLQTLKNPSSLTSPSSSTSVDKKKPLFTKSPRNSASCESTITLQSNLLFTYYKHYFAGIKKVALIGFPDHPNKGDSAIYVAEKKLLDALNIEVVYITAQEADYSASELKSIISDIPRDEFALAFHGGGNFGDLYPDHQHLRELVVRDFPSFTTISFPQSVWYNEQQLLEQASILYAENPNITLVTRDRQSYGFAVDAFGKHNEVLLTPDIVFFMGPIPEIREATPITHDVLILARLDHEGGQQHGAEDYYRDTLNAANLTYSVEDWLLWDPPVAQNPDSSFDDRGQARYEAGAEFLASARVVITDRLHAHILSTLMGIPHIVVENSQMGKITNYHNTWLHGCTLDGVSVVVDSVDKALSLLLEWNEAGYF
notes: Pvg1p, pyruvyltransferase of Schizosaccharomyces pombe; the D32-F401 portion (without the predicted N-terminal transmembrane region) was used for crystallization; disulfide bond C68-C373 seen in the crystal structure; Expression plasmid pET32b-pvg1; also called recombinant Pvg1p
Question: How did the “stoichiometry N” value turn out when B1 was run?
Answer: Its value is 2.
